Target: T1, CBRN-PLC-β3 fusion protein (phospholipase C-β3 with CBRN at its N-terminus) (UniProt Q01970 1-1234)
T1 construct: phospholipase C-β3 (PLC-β3); also called N-terminally-tagged PLC-β3; PLC-β3 sensor protein; not shown: CBRN (N-terminal fragment of red click-beetle luciferase, amino acids 1-416), N-terminal, kept
T1 sequence (looked up): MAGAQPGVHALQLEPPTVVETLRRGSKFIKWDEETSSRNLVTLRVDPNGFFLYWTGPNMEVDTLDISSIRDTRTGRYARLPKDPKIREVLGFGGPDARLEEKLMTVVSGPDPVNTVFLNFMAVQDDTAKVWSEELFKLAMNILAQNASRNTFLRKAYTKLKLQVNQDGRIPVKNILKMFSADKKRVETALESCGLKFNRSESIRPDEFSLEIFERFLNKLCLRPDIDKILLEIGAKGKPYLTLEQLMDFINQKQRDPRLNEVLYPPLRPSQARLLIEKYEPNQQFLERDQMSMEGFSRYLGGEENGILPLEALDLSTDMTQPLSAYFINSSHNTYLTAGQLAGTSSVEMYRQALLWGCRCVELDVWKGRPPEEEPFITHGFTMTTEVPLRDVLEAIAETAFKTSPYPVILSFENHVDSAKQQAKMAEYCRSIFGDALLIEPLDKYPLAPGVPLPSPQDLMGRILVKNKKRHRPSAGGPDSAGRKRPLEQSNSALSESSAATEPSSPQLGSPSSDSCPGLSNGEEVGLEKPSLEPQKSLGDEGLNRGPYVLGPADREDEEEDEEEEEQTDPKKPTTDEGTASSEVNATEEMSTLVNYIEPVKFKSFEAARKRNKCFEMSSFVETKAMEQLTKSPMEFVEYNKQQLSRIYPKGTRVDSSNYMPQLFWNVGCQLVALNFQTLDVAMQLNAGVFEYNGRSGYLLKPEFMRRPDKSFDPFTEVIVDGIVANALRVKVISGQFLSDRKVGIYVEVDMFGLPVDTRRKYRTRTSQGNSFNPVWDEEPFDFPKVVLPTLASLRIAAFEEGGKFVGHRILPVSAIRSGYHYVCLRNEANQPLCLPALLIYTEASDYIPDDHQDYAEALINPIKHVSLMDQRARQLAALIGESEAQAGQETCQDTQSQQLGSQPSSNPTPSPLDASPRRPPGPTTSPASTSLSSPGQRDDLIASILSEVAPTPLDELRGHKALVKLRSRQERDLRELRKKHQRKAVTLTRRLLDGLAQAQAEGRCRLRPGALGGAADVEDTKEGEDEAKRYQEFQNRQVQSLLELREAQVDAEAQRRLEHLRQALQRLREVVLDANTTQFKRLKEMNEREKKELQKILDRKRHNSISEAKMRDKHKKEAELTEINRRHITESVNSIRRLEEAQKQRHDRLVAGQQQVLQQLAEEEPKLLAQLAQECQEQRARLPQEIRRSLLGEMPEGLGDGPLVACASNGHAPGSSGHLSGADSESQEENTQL
Assay: split reporter (BiFC, NanoBiT); split click-beetle luciferase complementation in live HEK293T cells expressing the sensor and a GPCR (hH1R; also hM1,3,5R, hNTS1R); D-luciferin added to the cells, L-15 with 5% FCS, 37 °C; stimulated with agonist (histamine)
Conditions: partners not purified

B1: Gαq(123) fusion protein (CBRC integrated into the Gαq sequence after amino acid 123) (natural protein, UniProt P50148 1-359, looked up)
chain: MTLESIMACCLSEEAKEARRINDEIERQLRRDKRDARRELKLLLLGTGESGKSTFIKQMRIIHGSGYSDEDKRGFTKLVYQNIFTAMQAMIRAMDTLKIPYKYEHNKAHAQLVREVDVEKVSAFENPYVDAIKSLWNDPGIQECYDRRREYQLSDSTKYYLNDLDRVADPAYLPTQQDVLRVRVPTTGIIEYPFDLQSVIFRMVDVGGQRSERRKWIHCFENVTSIMFLVALSEYDQVLVESDNENRMEESKALFRTIITYPWFQNSSVILFLNKKDLLEEKIMYSHLVDYFPEYDGPQRDAQAAREFILKMFVDLNPDSDKIIYSHFTCATDTENIRFVFAAVKDTILQLNLKEYNLV
notes: Gαq (G protein alpha q subunit); also called modified Gαq; Gαq sensor protein
S/B ratio (signal-to-background of luminescence): ~5

B2: Gαq(97) fusion protein (CBRC integrated into the Gαq sequence after amino acid 97) (natural protein, UniProt P50148 1-359, looked up)
chain: MTLESIMACCLSEEAKEARRINDEIERQLRRDKRDARRELKLLLLGTGESGKSTFIKQMRIIHGSGYSDEDKRGFTKLVYQNIFTAMQAMIRAMDTLKIPYKYEHNKAHAQLVREVDVEKVSAFENPYVDAIKSLWNDPGIQECYDRRREYQLSDSTKYYLNDLDRVADPAYLPTQQDVLRVRVPTTGIIEYPFDLQSVIFRMVDVGGQRSERRKWIHCFENVTSIMFLVALSEYDQVLVESDNENRMEESKALFRTIITYPWFQNSSVILFLNKKDLLEEKIMYSHLVDYFPEYDGPQRDAQAAREFILKMFVDLNPDSDKIIYSHFTCATDTENIRFVFAAVKDTILQLNLKEYNLV
notes: Gαq (G protein alpha q subunit); CBRC inserted after amino acid 97 with flexible Gly/Ser linkers; source: HEK293T, transfected, in cells; not shown: CBRC (C-terminal fragment of red click-beetle luciferase, amino acids 394-542), internal (after residue 97), kept
fold lower S/B ratio than the sensor with Gαq(123): ~3 fold

Reference: publication PMC6249299, “A split luciferase-based probe for quantitative proximal determination of Gαq signalling in live cells” (Scientific Reports, 2018)
